These results are taken from article PMC8866402.

The target in the assay is N-His6-fortilin (human) (UniProt P13693). Kind of assay: SPR; Biacore 3000, 25 °C, HBS-EPS (0.01 M HEPES, 0.5 M NaCl, 3 mM EDTA, 0.005% Tween 20, pH 7.4), 20 μL/min; forms of rh-fortilin amine-coupled to a CM5 chip; rh-TGF-β1 injected (0 to 200 nM; 100 nM for scouting).
Chain of N-His6-fortilin (human) (P13693 whole entry): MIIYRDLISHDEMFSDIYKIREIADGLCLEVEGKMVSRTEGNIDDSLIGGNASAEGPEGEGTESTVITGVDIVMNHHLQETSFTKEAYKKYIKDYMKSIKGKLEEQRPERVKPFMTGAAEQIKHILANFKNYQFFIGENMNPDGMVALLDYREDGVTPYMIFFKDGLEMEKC

In general, Kd refers to a measure of binding affinity in units of concentration. A high value points to a looser complex. In the case of “recombinant human TGF-β1 produced in-house (ligand)”, the Kd worked out at 210 nM.
